From US8822645B2, “Prostaglandin E2 dual variable domain immunoglobulins and uses thereof” (AbbVie Inc., priority 2008, dated 2014) come the findings set out here.

Positions count from the first letter of the chain named.

In data set [1] the test system is C57.BL/6 mice, carrageenan-induced footpad edema. The data set can be described thus: Carrageenan-induced footpad edema model. Format: in vivo, mouse. Conditions: 10 mg/kg. On the procedure: Carrageenan-Induced Footpad Edema is an acute rodent model of innate immune function. Intradermal (ID) injection of an inflammatory agent causes a rapid influx of neutrophils and fluid edema, which peaks at approximately 4 hours, followed by an influx of macrophages and monocytes, which peaks at approximately 48 hours. C57.BL/6 mice (8-10-week-old, Jackson Laboratories, Bar Harbor, Me.) were injected ID in the rear footpad with 30 μL of either PBS (left) or λ-carrageenen (Sigma Aldrich, St. Louis, Mo.) in PBS (right) at a concentration of 5.0 mg/mL (150 μg/mouse). […] Significant difference for paw thickness was determined by comparing mean paw swelling for each treatment group to vehicle in a Student's two-tailed t-test.
The endpoint measured was the difference in paw swelling (edema) between right and left paws 4 hours after treatment.

Data set [2] is described as follows: 3H-PGE2 ELISA (PGE2 binding affinity). On the procedure: Alternatively, prostaglandin binding screen for antibodies or DVD-Ig molecules can be determined using a ^3H-PGE2 ELISA. Plates were coated at 50 μl/well with 5 μg/ml of goat anti-human IgG (Fc) (Thermo Scientific #31170, Hudson, N.H.) or goat anti-mouse IgG (Fc) (Thermo Scientific #31125, Hudson, N.H.) in PBS and incubated overnight at 4° C. The following day plates were flicked and blotted dry. Plates were then blocked with 200 μL/well of Superblock (Thermo Scientific #37515, Hudson, N.H.), for 1 hour at room temperature. Plates were flicked and blotted dry. Monoclonal antibodies were diluted to 0.04 μg/ml in PBST (Abbott Bioresearch Center, Worcester, Mass.)/10% Superblock and 50 uL of each antibody or DVD-Ig was added to each well of the pre-blocked ELISA plate at 2 ng/well and incubated for 1 hour at room temperature. Wells were washed 3 times with PBS+0.1% Tween-20. A serial 3 fold titration of ^3H-PGE2 (Perkin Elmer #NET-428, Waltham, Mass.) was prepared in PBST+10% Superblock. Fifty microliters of the ^3H-PGE2 solution was then added to each well of the plate and incubated for 1 hour at room temperature. Wells were washed 6 times with PBST+10% Superblock and 50 μL of scintillation fluid (Perkin Elmer #6013621, Waltham, Mass.) added to each well. Plates were read using the TopCount reader (Perkin Elmer, Waltham, Mass.) with a 5 minutes count delay. EC50 number was determined using GraphPad Prism 5 (GraphPad Software, La Jolla, Calif.).
On the technique in general: An ELISA detects its analyte on a solid surface through an enzyme-linked reagent.

Data set [3] has as its system human TNFα transgenic B6.Cg(SJL)-Tg(TNF) N21+ mice. The data set can be described thus: Human TNFα transgenic induced arthritis model. The class given is in vivo, mouse. Conditions: PGE2 blockade. On the procedure: Human TNFα transgenic B6.Cg(SJL)-Tg(TNF) N21+ mice (40 male and 40 females) (Taconic, Hudson, N.Y.) at 4 weeks age were divided into 10 groups of 8 mice (4 male and 4 females/group). Each week, starting from week 5 until week 12 of age the morphology of the rear ankle joints of the mice were evaluated and scored for signs and symptoms of arthritis. Arthritic scores were assigned as follows. • 0=no arthritis (normal appearance and flexion) • 1=mild arthritis (joint distortion) • 2=moderate arthritis (swelling, joint deformation); and • 3=severe arthritis (ankylosis detected on flexion and severely impaired movement)
Animals were randomized to achieve approximately similar mean arthritic score (MAS) for all groups at week 9 at first signs of symptoms. Animals were then treated i.p. twice a week starting from week 10 of age until week 12 of age. Mice in group 1 served as untreated control were administered PBS.

In data set [4] the test system is PGE2 / human EP4 receptor in HEK293 Gα16 cells. Briefly: EP4 bioassay (Ca++ flux, neutralization of PGE2). The class given is cell-based. The procedure, abridged: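 Ca++ flux (FLIPR) in HEK293 Gα16 cells stably expressing human EP4, loaded with Ca++-sensitive dye for 90 min. PGE2, alone or pre-incubated with anti-PGE2 antibody, DVD-Ig or isotype control, was added in FLIPR buffer (HBSS, 20 mM HEPES, 0.1% BSA, 2.5 mM probenecid). EC50 derived from PGE2 dose-response.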

A further data set is described as follows: Dynamic light scattering. The class given is physicochemical. The conditions noted are these: 2 mg/mL in PBS. On the procedure:
Samples were centrifuged at 10,000 RPM for 10 minutes before measured on DynaPro-801 Dynamic light scattering system.

Data set [5] is described as follows: PGE2-biotinamide ELISA (PGE2 binding). The conditions noted are these: PGE2 VD in N-terminal position, read-out: Direct Bind ELISA N-terminal VD EC50. The procedure, abridged: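 Antibody or DVD-Ig (1 µg/ml) captured on anti-host Fc IgG-coated plates for 1 h at room temperature, then titrated with PGE2-biotinamide serially diluted from 30 nM for 1 h. Binding detected with streptavidin-polyHRP and TMB, absorbance read at 450 nm; EC50 from the titration curve.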

A further data set has as its system desired target antigen. Briefly: Direct Bind ELISA of parent antibodies and DVD-Ig constructs. Format: binding. Conditions: C-terminal variable domain NGF, read-out: Direct Bind ELISA C-terminal VD EC50. On the procedure:
Enzyme Linked Immunosorbent Assays to screen for antibodies that bind a desired target antigen were performed as follows. […] Plates were washed four times with PBS containing 0.02% Tween 20. Plates were blocked by the addition of 300 μL/well blocking solution (non-fat dry milk powder, various retail suppliers, diluted to 2% in PBS) for ½ hour at room temperature. Plates were washed four times after blocking with PBS containing 0.02% Tween 20.
Wells were washed four times with PBS containing 0.02% Tween 20.
One hundred microliters of antibody or DVD-Ig preparations diluted in blocking solution as described above was added to the desired target antigen plate or desired target antigen/FC fusion plate or the anti-polyHistidine antibody/His tagged desired target antigen plate prepared as described above and incubated for 1 hour at room temperature.
Plates were washed 4 times with PBS containing 0.02% Tween 20.
One hundred microliters of enhanced TMB solution (Neogen Corp. #308177, K Blue, Lexington, Ky.) was added to each well and incubated for 10 minutes at room temperature. The reaction was stopped by the addition of 50 μL 1N sulphuric acid. Plates were read spectrophotometrically at a wavelength of 450 nm.

B1: 2B5-8.0: murine anti-PGE2 antibody clone, VH SEQ ID 82, VL SEQ ID 83 (antibody, V domains shown)
VH: QVQLQQSGPELVRPGSSVKISCKASGYTFTKYWLGWVKQRPGHGLEWIGDIYPGYDYTHYNEKFKDKATLTVDTSSSTAYMQLSSLTSEDSAIYYCARSDGSSTYWGQGTLVTVSA
VL: DVLMTQTPLSLPVSLGDQASISCTSSQNIVHSNGNTYLEWYLQRPGQSPKLLIYKVSNRFSGVPDRFSGSGSGTVFTLKISRVEAEDLGVYYCFQVSHVPYTFGGGTKLEIKR
By % Inhibition is commonly meant the percentage by which the read-out fell short of the control. A lower % Inhibition goes with little suppression. The Kd is a measure of binding affinity in units of concentration. By IC50 is commonly meant the midpoint of a concentration-inhibition curve. B1: the “maximal inhibition of paw swelling” value in data set [1] (IP 18 hours prior to carrageenan, 4 hours) is 40-50%. Also, in data set [1] (i.p.), the “% Inhibition” value came out at 38 ± 4.6%. Further, the “Δ Paw Swelling” value in data set [1] (i.p., 4 hours post carrageenan) worked out at 0.529 ± 0.04 mm. This molecule displayed a Kd in data set [2] of 0.334 nM. In data set [3], the “effect on disease progression” value is “no significant effect”. It took 0.02 nM to reach half-maximal inhibition in data set [4] (EP4 assay) (IC50).

B2: Hu2B5.7: humanized anti-PGE2 antibody, VH SEQ ID 74, VL SEQ ID 75 (antibody, V domains shown)
VH: EVQLVQSGAEVKKPGASVKVSCKASGYTFTKYWLGWVRQAPGQGLEWMGDIYPGYDYTHYNEKFKDRVTLTTDTSTSTAYMELRSLRSDDTAVYYCARSDGSSTYWGQGTLVTVSS
VL: B1 VL with S14T, L15P, D17E, Q18P, R44K, K50Q, V75D, L88V, L109V
In the case of B2, the hydrodynamic radius in “Dynamic light scattering” is on record as 5.36 nm.

B3: DVD163: DVD-Ig construct listed in Table 4 (antibody)
VH: EVQLVQSGAEVKKPGASVKVSCKASGYTFTKYWLGWVRQAPGQGLEWMGDIYPGYDYTHYNEKFKDRVTLTTDTSTSTAYMELRSLRSDDTAVYYCARSDGSSTYWGQGTLVTVSSASTKGPQVQLQESGPGLVKPSETLSLTCTVSGFSLIGYDLNWIRQPPGKGLEWIGIIWGDGTTDYNSAVKSRVTISKDTSKNQFSLKLSSVTAADTAVYYCARGGYWYATSYYFDYWGQGTLVTVSS
VL: DVLMTQTPLSLPVTPGEPASISCTSSQNIVHSNGNTYLEWYLQKPGQSPQLLIYKVSNRFSGVPDRFSGSGSGTDFTLKISRVEAEDVGVYYCFQVSHVPYTFGGGTKVEIKRTVAAPDIQMTQSPSSLSASVGDRVTITCRASQSISNNLNWYQQKPGKAPKLLIYYTSRFHSGVPSRFSGSGSGTDFTFTISSLQPEDIATYYCQQEHTLPYTFGQGTKLEIKR
By EC50 is commonly meant the midpoint of the concentration-response curve. Take B3: the EC50 in data set [5] is 0.71 nM; with desired target antigen, > 10000 nM; in data set [4] (PGE2 VD in N-terminal position, EP4 bioassay, Ca++ flux, read-out: N-terminal VD PGE2 Neutralization EC50), 0.245 nM.
